Experiment: soluble on expression in E. coli; label from the status in PepcDB or PDB records

| Sequence | soluble on expression in E. coli |
| --- | --- |
| MDFETNEDINGVRFTWNVFPSTRSDANSNVVPVGCLYTPLKEYDELNVAPYNPVVCSGPHCKSILNPYCVIDPRNSSWSCPICNSRNHLPPQYTNLSQENMPLELQSTTIEYITNKPVTVPPIFFFVVDLTSETENLDSLKESIITSLSLLPPNALIGLITYGNVVQLHDLSSETIDRCNVFRGDREYQLEALTEMLTGQKPTGPGGAASHLPNAMNKVTPFSLNRFFLPLEQVEFKLNQLLENLSPDQWSVPAGHRPLRATGSALNIASLLLQGCYKNIPARIILFASGPGTVAPGLIVNSELKDPLRSHHDIDSDHAQHYKKACKFYNQIAQRVAANGHTVDIFAGCYDQIGMSEMKQLTDSTGGVLLLTDAFSTAIFKQSYLRLFAKDEEGYLKMAFNGNMAVKTSKDLKVQGLIGHASAVKKTDANNISESEIGIGATSTWKMASLSPYHSYAIFFEIANTAANSNPMMSAPGSADRPHLAYTQFITTYQHSSGTNRIRVTTVANQLLPFGTPAIAASFDQEAAAVLMARIAVHKAETDDGADVIRWLDRTLIKLCQKYADYNKDDPQSFRLAPNFSLYPQFTYYLRRSQFLSVFNNSPDETAFYRHIFTREDTTNSLIMIQPTLTSFSMEDDPQPVLLDSISVKPNTILLLDTFFFILIYHGEQIAQWRKAGYQDDPQYADFKALLEEPKLEAAELLVDRFPLPRFIDTEAGGSQARFLLSKLNPSDNYQDMARGGSTIVLTDDVSLQNFMTHLQQVAVSGQA | soluble |
| MKETDLRVIKTKKALSSSLLQLLEQQLFQTITVNQICDNALVHRTTFYKHFYDKYDLLEYLFNQLTKDYFARDISDRLNHPFQTMSDTINNKEDLREIAEFQEEDAEFNKVLKNVCIKIMHNDIKNNRDRIDIDSDIPDNLIFYIYDSLIEGFIHWIKDEKIDWPGEDIDNIFHRLINIKIK | soluble |
| MEENNKILIYTDSEGLTKIDVILEDETLWLTQAQMCELYQTSKSNVSEHIKHIFEEGELQEDSVVRKFRTTASDGKSYMTAYYNLDMIIALGYRIRSIIATRFRQWATQRLKEYMIKGFALDDERLKQLGGGGYWKELLERIRDIRATEKVLYRQVLEIYATSIDYDPRASVSQEFFKKVQNKIHYAIHGHTAAELIVERADAEKDFMGLLTFKGNQPTLSEARTAKNYLDEKELRAMGQLVSGYLDFAERQAEREQPMTMNDWANYLDRILTMSGEQLLLDSGKVSHTEAMEHATNEYRKYKQRTISDVEQDYLDSIKRIGNIGKKGDKNEN | not soluble |
| SVGTTSVVKNSHEEVVQTLANSLFPAQFMNGNIHIPVAVQAVAGTYQNTAQTVHIWDPQQQPQQQTPQEQTPPPQQQQQQLQVTCSAQTVQVAEVEPQSQPQPSPELLLPNSLKPEEGLEVWKNWAQTKNAELEKDAQNRLAPIGRRQLLRFQEDLISSAVAELNYGLCLMTREARNGEGEPYDPDVLYYIFLCIQKYLFENGRVDDIFSDLYYVRFTEWLHEVLKDVQPRVTPLGYVLPSHVTEEMLWECKQLGAHSPSTLLTTLMFFNTKYFLLKTVDQHMKLAFSKVLRQTKKNPSNPKDKSTSIRYLKALGIHQTGQKVTDDMYAEQTENPENPLRCPIKLYDFYLFKCPQSVKGRNDTFYLTPEPVVAPNSPIWYSVQPISREQMGQMLTRILVIREIQEAIAVANASTMH | soluble |
| AARSECKRSHKFVPGAWLAGEGVDVTSLRRSGSFPVDTQRFLRPDGTCTLCENALQEGTLQRLPLALTNWRAQGSGCQRHVTRAKVSSTEAVARDAARSIRNDWKVGLDVTPKPTSNVHVSVAGSHSQAANFAAQKTHQDQYSFSTDTVECRFYSFHVVHTPPLHPDFKRALGDLPHHFNASTQPAYLRLISNYGTHFIRAVELGGRISALTALRTCELALEGLTDNEVEDCLTVEAQVNIGIHGSISAEAKACEEKKKKHKMTASFHQTYRERHSEVVGGHHTSINDLLFGIQAGPEQYSAWVNSLPGSPGLVDYTLEPLHVLLDSQDPRREALRRALSQYLTDRARWRDCSRPCPPGRQKSPRDPCQCVCHGSAVTTQDCCPRQRGLAQLEVTFIQAWGLWGDWFTATDAYVKLFFGGQELRTSTVWDNNNPIWSVRLDFGDVLLATGGPLRLQVWDQDSGRDDDLLGTCDQAPKSGSHEVRCNLNHGHLKFRYHARCLPHLGGGTCLDYVPQMLLGEPPGNRSGAVW | soluble |
| MADDFAYLNARVRVRRGTLLKESFFQEALDLSFADFLRLLSETVYGGELAGQGLPDVDRAVLRTQAKLVGDLPRLVTGEAREAVRLLLLRNDLHNLQALLRAKATGRPFEEVLLLPGTLREEVWRQAYEAQDPAGMAQVLAVPGHPLARALRAVLRETQDLARVEALLAKRFFEDVAKAAKGLDQPALRDYLALEVDAENLRTAFKLQGSGLAPDAFFLKGGRFVDRVRFARLMEGDYAVLDELSGTPFSGLSGVRDLKALERGLRCVLLKEAKKGVQDPLGVGLVLAYVKEREWEAVRLRLLARRAYFGLPRAQVEEEVVCP | soluble |

Source: the DeepSol protein solubility set
